We go through 2 substances from patent US20180207294A1, “NON-ALCOHOLIC FATTY LIVER REGULATING FACTOR 14-3-3 PROTEIN” (Korea University Research and Business Foundation, priority 2015, published 2018).

Where a chain is given by its changes, count along the chain named.

One assay concerns the target T1, PPARγ2 (Homo sapiens, UniProt P37231).
T1 construct: host or cells: HEK-293T
T1 sequence (P37231 1-505): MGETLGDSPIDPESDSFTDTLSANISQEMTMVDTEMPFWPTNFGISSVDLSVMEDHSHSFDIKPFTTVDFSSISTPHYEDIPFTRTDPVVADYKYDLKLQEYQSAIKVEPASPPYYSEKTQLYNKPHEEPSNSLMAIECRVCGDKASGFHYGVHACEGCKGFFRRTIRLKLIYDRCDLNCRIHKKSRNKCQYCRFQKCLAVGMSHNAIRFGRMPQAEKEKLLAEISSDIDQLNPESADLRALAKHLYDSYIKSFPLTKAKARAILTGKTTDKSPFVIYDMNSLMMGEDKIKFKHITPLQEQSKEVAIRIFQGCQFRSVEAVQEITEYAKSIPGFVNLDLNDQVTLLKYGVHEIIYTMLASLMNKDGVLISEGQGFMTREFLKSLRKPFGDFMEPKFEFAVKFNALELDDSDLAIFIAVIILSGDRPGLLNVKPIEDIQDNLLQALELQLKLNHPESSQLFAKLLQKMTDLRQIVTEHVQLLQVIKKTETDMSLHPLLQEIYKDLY
In words: aP2 promoter luciferase assay of PPARγ2 transcriptional activity in HEK-293T cells. Format: cell-based. As for the experimental part: The transcriptional activity of PPARγ2 plays a vital role in expression of liver diseases-associated proteins. Thus, the transcriptional activity of PPARγ2 was measured using an aP2 promoter regulated by PPARγ2, and the role of 7 types of 14-3-3 proteins was investigated.
For this, HEK-293T cells were seeded in a 12-well plate at a density of 1×10^5 cells per each well, and then transfected with an aP2 promoter construct (0.5 μg) and 14-3-3 isoform proteins (α, β, γ, ε, ζ, π, θ) (0.5 μg) or si-14-3-3β and si-14-3-3γ siRNA (5 nM and 10 nM, Santa Cruz) using an E-fection plus reagent (Lugen). A ratio of DNA to the E-fection plus reagent was 1:2, and this method was performed according to a manufacturer's manual. After transfection, the corresponding cells were treated with 10 μM of pioglitazone (Pio, Santa Cruz) for 24 hours, washed with ice-cold PBS, and lysed using 80 μl/well of a reporter lysis buffer (Promega, Madison, Wis.), and the lysed cells were centrifuged at 10,000×g and 4° C. for 10 minutes to collect a supernatant, and luciferase activity was measured. As an instrument, Luminometer 20/20n (Turner Biosystems, Sunnyvale, Calif.) was used. For normalization, the cells were cotransfected with pSV40-β-galactosidase. For the collected supernatant, β-galactosidase activity was measured and the luciferase activity was revised, and the obtained values were plotted. At this time, a β-galactosidase enzyme analysis system (Promega, Madison, Wis.) was used, and analysis was performed using a DU530 spectrophotometer (Beckman Instruments, Palo Alto, Calif.).

A further assay has as its target T2, PPARγ2 S273A mutant (Homo sapiens, UniProt P37231, S273A).
T2 construct: expressed in transfected cells; host or cells: HEK-293T
T2 sequence (P37231 1-505 S273A): T1 sequence (P37231 1-505) with S273A
In words: aP2 promoter luciferase assay with PPARγ2 S273A mutant (HEK-293T). Format: cell-based. The following applies: FIG. 4C, 4D. As for the experimental part: In addition, HEK-293T cells were seeded in a 12-well plate at a density of 1×10^5 cells per each well, and then transfected with an aP2 promoter construct (0.5 μg), Flag-PPARγ2 (S112A) DNA (0.5 μg) or Flag-PPARγ2 (S273A) DNA (0.5 μg), and mGST-14-3-3β DNA (0.5 μg) or mGST-14-3-3γ DNA (0.5 μg) using an E-fection plus reagent (Lugen). A ratio of DNA to the E-fection plus reagent was 1:2, and this method was performed according to a manufacturer's manual. The corresponding cells were washed with ice-cold PBS, and lysed using 80 μl/well of a reporter lysis buffer (Promega, Madison, Wis.), and the lysed cells were centrifuged at 10,000×g and 4° C. for 10 minutes to collect a supernatant, and luciferase activity was measured. As an instrument, Luminometer 20/20n (Turner Biosystems, Sunnyvale, Calif.) was used. For normalization, the cells were cotransfected with pSV40β-galactosidase. For the collected supernatant, β-galactosidase activity was measured and the luciferase activity was revised, and the obtained values were plotted. At this time, a β-galactosidase enzyme analysis system (Promega, Madison, Wis.) was used, and analysis was performed using a DU530 spectrophotometer (Beckman Instruments, Palo Alto, Calif.).

The mark [1] stands for this setting: 14-3-3β / 14-3-3γ overexpressed according to concentration, FIG. 1B, 1C.
Where [2] appears, read: overexpression of 14-3-3 isoform proteins (0.5 μg), 10 μM pioglitazone 24 hours, FIG. 1A.

For “14-3-3β: 14-3-3 isoform protein, overexpressed by DNA transfection; regulating factor that increases transcriptional activity of PPARγ2”, the “transcriptional activity of PPARγ2 (activity of the aP2 promoter)” value is recorded as “increased the transcriptional activity of PPARγ2 in a concentration-dependent manner” with PPARγ2 (setting [1]) and “increased the transcriptional activity of PPARγ2” with PPARγ2 (setting [2]). The “change in transcriptional activity of PPARγ2 S273A mutant on 14-3-3 overexpression” value with PPARγ2 S273A mutant is listed as “no change”.

Turning to “14-3-3γ: 14-3-3 isoform protein, overexpressed by DNA transfection; regulating factor that decreases transcriptional activity of PPARγ2”, the “transcriptional activity of PPARγ2 (activity of the aP2 promoter)” value is on record as “reduced the transcriptional activity of PPARγ2 in a concentration-dependent manner” with PPARγ2 (setting [1]) and “decreased the transcriptional activity of PPARγ2” with PPARγ2 (setting [2]). Moreover, the “change in transcriptional activity of PPARγ2 S273A mutant on 14-3-3 overexpression” value with PPARγ2 S273A mutant was “no change”.
